Patent US20250177373A1

Legend:
[1] = biological target: gp41-inter (HIV-1; HIV-1 clade A isolate 92UG037.8); experiment: fluorescence anisotropy/polarization, FITC-labeled 2F5 Fab held at 50 nM, gp41-inter titrated; the concentration read is that of gp41-inter
[2] = biological target: gp41-inter (HIV-1; HIV-1 clade A isolate 92UG037.8); experiment: fluorescence anisotropy/polarization, FITC-labeled 4E10 Fab, gp41-inter titrated; the concentration read is that of gp41-inter
[3] = biological target: gp41-inter (HIV-1; HIV-1 clade A isolate 92UG037.8); experiment: fluorescence anisotropy/polarization; FITC-4E10 Fab, gp41-inter titrated

Which EC50 (read off the curve) [1] does the source give for 2F5 Fab here?
The EC50 (read off the curve) was 10 nM.

For 4E10 Fab, which EC50 (read off the curve) [2] is on record?
The EC50 (read off the curve) was 20 nM.

What about the Kd [3] of the same substance?
Its Kd is 23 nM.
